Data on one protein can be found in article PMC9638024, “Functional rewiring of G protein-coupled receptor signaling in human labor” (Cell Reports, 2022).

For this data set, the target named is FLAG-tagged EP2, P43116. The data set is described as follows: PD-PALM (dual-color photoactivated localization microscopy with photoactivatable dyes); HEK 293 cells stably expressing FLAG-EP2 and transfected with HA-OTR; live labelling with anti-FLAG-CAGE 500 and anti-HA-CAGE 552, fixed, TIRF plane, 25 C; search radius 50 nm, Getis Franklin …. Particulars: other: PD-PALM (dual-color photoactivated localization microscopy with photoactivatable dyes).
Chain of FLAG-tagged EP2, P43116 (P43116 whole entry): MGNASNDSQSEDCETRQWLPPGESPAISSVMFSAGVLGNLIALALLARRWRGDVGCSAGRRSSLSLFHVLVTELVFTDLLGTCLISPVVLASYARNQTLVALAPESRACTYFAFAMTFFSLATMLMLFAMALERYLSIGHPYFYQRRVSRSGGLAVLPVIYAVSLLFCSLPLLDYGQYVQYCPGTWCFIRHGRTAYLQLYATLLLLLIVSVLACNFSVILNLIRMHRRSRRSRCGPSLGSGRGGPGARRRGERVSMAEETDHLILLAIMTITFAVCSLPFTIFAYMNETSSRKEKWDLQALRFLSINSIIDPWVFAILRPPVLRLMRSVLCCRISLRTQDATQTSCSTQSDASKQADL

B1: hemagglutinin (HA)-tagged OTR (protein)
chain: MEGALAANWSAEAANASAAPPGAEGNRTAGPPRRNEALARVEVAVLCLILLLALSGNACVLLALRTTRQKHSRLFFFMKHLSIADLVVAVFQVLPQLLWDITFRFYGPDLLCRLVKYLQVVGMFASTYLLLLMSLDRCLAICQPLRSLRRRTDRLAVLATWLGCLVASAPQVHIFSLREVADGVFDCWAVFIQPWGPKAYITWITLAVYIVPVIVLAACYGLISFKIWQNLRLKTAAAAAAEAPEGAAAGDGGRVALARVSSVKLISKAKIRTVKMTFIIVLAFIVCWTPFFFVQMWSVWDANAPKEASAFIIVMLLASLNSCCNPWIYMLFTGHLFHELVQRFLCCSASYLKGRRLGETSASKKSNSSSFVLSHRSSSQRSCSQPSTA
With B1, the “percent of the heteromers that are heterodimers (basal)” value is “heterodimers (∼55% of the heteromers)”.
